Data on seven molecules can be found in patent US20210101998A1.

Like-named read-outs stand apart in the source and are kept apart here.

Test [1] concerns the target endogenous TFPI in human plasma (human), P10646. Nature of the test: cell-based or functional assay.
The target is the same in test [2]. The test is described as follows: cell-based or functional assay. The source holds these as a separate data set.

B1: 7A4.D9 (antibody, mouse IgG1, kappa)
light: DIVLTQSPASLAVSLGQRATISCRASKSVSTSGYTYMHWYQQKPGQPPKLLIYLASNLESGVPARFSGSGSGTDFTLNIHPVEEEDAAAYYCQHIRELPFTFGSGTKLEIKADAAPTVSIFPPSSEQLTSGGASVVCFLNNFYPKDINVKWKIDGSERQNGVLNSWTDQDSKDSTYSMSSTLTLTKDEYERHNSYTCEATHKTSTSPIVKSFNRNEC
heavy: EVQLQQSGPELVKPGASVKMSCKASGYTFTSYVMHWVKQKPGQGLEWIGYLNPYNDGTKYNEKFKGKASLISDKSSSTVYMELSSLTSEDSAVYYCATTLLYAMDYWGQGSSVTVSSAKTTPPSVYPLAPGSAAQTNSMVTLGCLVKGYFPEPVTVTWNSGSLSSGVHTFPAVLQSDLYTLSSSVTVPSSTWPSETVTCNVAHPASSTKVDKKIVPRDCGCKPCICTVPEVSSVFIFPPKPKDVLTITLTPKVTCVVVDISKDDPEVQFSWFVDDVEVHTAQTQPREEQFNSTFRSVSELPIMHQDWLNGKEFKCRVNSAAFPAPIEKTISKTKGRPKAPQVYTIPPPKEQMAKDKVSLTCMITDFFPEDITVEWQWNGQPAENYKNTQPIMDTDGSYFVYSKLNVQKSNWEAGNTFTCSVLHEGLHNHHTEKSLSHSPGK
For B1, the TGA Velocity Index at 20 nM in test [1] was 23.3.

B2: 4D8.b1 (antibody, mouse IgG1, kappa)
light: DIVMTQSHKFMSTSVGDRVSITCKASQDVHTAVAWYQQKPGQSPRLLIYWASTRHTGVPDRFTGCGSGTDYTLTISSVQAEDLALYYCQQHYTTPYTFGGGTKLEMKADAAPTVSIFPPSSEQLTSGGASVVCFLNNFYPKDINVKWKIDGSERQNGVLNSWTDQDSKDSTYSMSSTLTLTKDEYERHNSYTCEATHKTSTSPIVKSFNRNEC
heavy: EVLLQQSGPELVKPGASVKIPCKASGYTFTDYNLDWVKQSHGKSLEWIGDINPINGATLYNQKFKGKATLTVDQSSSTAYMELRSLTSEDTAVYYCSIYYGDYDAMDYWGQGASVTVSSAKTTPPSVYPLAPGSAAQTNSMVTLGCLVKGYFPEPVTVTWNSGSLSSGVHTFPAVLQSDLYTLSSSVTVPSSTWPSETVTCNVAHPASSTKVDKKIVPRDCGCKPCICTVPEVSSVFIFPPKPKDVLTITLTPKVTCVVVDISKDDPEVQFSWFVDDVEVHTAQTQPREEQFNSTFRSVSELPIMHQDWLNGKEFKCRVNSAAFPAPIEKTISKTKGRPKAPQVYTIPPPKEQMAKDKVSLTCMITDFFPEDITVEWQWNGQPAENYKNTQPIMDTDGSYFVYSKLNVQKSNWEAGNTFTCSVLHEGLHNHHTEKSLSHSPGK
In the case of B2, the TGA Velocity Index at 20 nM in test [2] turned out to be 13.5; in test [1], 26.3.

B3: 6B7.c5 (antibody, mouse IgG1, kappa)
light: DIVMTQSHKFMSTSVGDRVSITCKASQDVITAVAWYQQKPGQSPKLLIYWASTRHTGVPVRFTGSGSGTDYTLTIISVQAEDLALYYCQQHYSTPYTFGGGTKLEIKADAAPTVSIFPPSSEQLTSGGASVVCFLNNFYPKDINVKWKIDGSERQNGVLNSWTDQDSKDSTYSMSSTLTLTKDEYERHNSYTCEATHKTSTSPIVKSFNRNEC
heavy: EVLLQQSGPELVKPGSSVKIPCKASGYTFTDYTMDWVKQSHGKSLEWIGDINPSNGGSIYNRKFKGKATLTVDKSSSTAYMELRSLTSEDTAVYYCARMHYNYDGFPYWGQGTLVTVSAAKTTPPSVYPLAPGSAAQTNSMVTLGCLVKGYFPEPVTVTWNSGSLSSGVHTFPAVLQSDLYTLSSSVTVPSSTWPSETVTCNVAHPASSTKVDKKIVPRDCGCKPCICTVPEVSSVFIFPPKPKDVLTITLTPKVTCVVVDISKDDPEVQFSWFVDDVEVHTAQTQPREEQFNSTFRSVSELPIMHQDWLNGKEFKCRVNSAAFPAPIEKTISKTKGRPKAPQVYTIPPPKEQMAKDKVSLTCMITDFFPEDITVEWQWNGQPAENYKNTQPIMDTDGSYFVYSKLNVQKSNWEAGNTFTCSVLHEGLHNHHTEKSLSHSPGK
In test [1], B3 registered a TGA Velocity Index at 20 nM of 23.5.

B4: TFPI-24 (antibody, human IgG1, lambda)
light: not shown
heavy: EVQLVESGGGSVQPGRSLRLSCAVSGLTIDNYAMQWVRQRPGKGLEWVSGISGNSRSIGYADSVKGRLTISRDNAKNSLYLQIDSLRADDTALYYCAIFLHESDYWGQGTLVTVSSASTKGPSVFPLAPSSKSTSGGTAALGCLVKDYFPEPVTVSWNSGALTSGVHTFPAVLQSSGLYSLSSVVTVPSSSLGTQTYICNVNHKPSNTKVDKKVEPKSCDKTHTCPPCPAPEAAGAPSVFLFPPKPKDTLMISRTPEVTCVVVDVSHEDPEVKFNWYVDGVEVHNAKTKPREEQYNSTYRVVSVLTVLHQDWLNGKEYKCKVSNKALPAPIEKTISKAKGQPREPQVYTLPPSREEMTKNQVSLTCLVKGFYPSDIAVEWESNGQPENNYKTTPPVLDSDGSFFLYSKLTVDKSRWQQGNVFSCSVMHEALHNHYTQKSLSLSPG
In test [2], B4 came in with a TGA Velocity Index at 20 nM of 23.2 and a dilute prothrombin time EC50 of 0.57 nM.

B5: TFPI-118 (antibody, human IgG1, lambda)
light: not shown
heavy: EVQLVESGGGLVQPGRSLRLSCAVSGLTIDNYAMQWVRQAPGKGLEWVSGISGNSRSIGYADSVKGRFTISRDNAKNSLYLQMNSLRAEDTALYYCAIFLHESDYWGQGTLVTVSSASTKGPSVFPLAPSSKSTSGGTAALGCLVKDYFPEPVTVSWNSGALTSGVHTFPAVLQSSGLYSLSSVVTVPSSSLGTQTYICNVNHKPSNTKVDKKVEPKSCDKTHTCPPCPAPEAAGAPSVFLFPPKPKDTLMISRTPEVTCVVVDVSHEDPEVKFNWYVDGVEVHNAKTKPREEQYNSTYRVVSVLTVLHQDWLNGKEYKCKVSNKALPAPIEKTISKAKGQPREPQVYTLPPSREEMTKNQVSLTCLVKGFYPSDIAVEWESNGQPENNYKTTPPVLDSDGSFFLYSKLTVDKSRWQQGNVFSCSVMHEALHNHYTQKSLSLSPG
For B5, in test [2], the Dilute PT EC50 amounted to 1.16 nM, the TGA Velocity EC50 was determined as 7.72 nM and the dilute prothrombin time EC50 amounted to 1.16 nM.

B6: 2A8-200 (antibody, human IgG1, lambda)
light: DIELTQPPSVSVAPGQTARISCSGDNLRNYYAHWYQQKPGQAPVVVIFYDVNRPSGIPERFSGSNSGNTATLTISGTQAEDEADYYCQSWWDGVPVFGGGTKLTVLGQPKAAPSVTLFPPSSEELQANKATLVCLISDFYPGAVTVAWKADSSPVKAGVETTTPSKQSNNKYAASSYLSLTPEQWKSHRSYSCQVTHEGSTVEKTVAPTECS
heavy: QVQLVESGGGLVQPGGSLRLSCAASGFTFRSYGMDWVRQAPGKGLEWVSSIRGSRSSTYYADSVKGRFTISRDNSKNTLYLQMNSLRAEDTAVYYCARLYRYWFDYWGQGTLVTVSSASTKGPSVFPLAPSSKSTSGGTAALGCLVKDYFPEPVTVSWNSGALTSGVHTFPAVLQSSGLYSLSSVVTVPSSSLGTQTYICNVNHKPSNTKVDKKVEPKSCDKTHTCPPCPAPEAAGAPSVFLFPPKPKDTLMISRTPEVTCVVVDVSHEDPEVKFNWYVDGVEVHNAKTKPREEQYNSTYRVVSVLTVLHQDWLNGKEYKCKVSNKALPAPIEKTISKAKGQPREPQVYTLPPSREEMTKNQVSLTCLVKGFYPSDIAVEWESNGQPENNYKTTPPVLDSDGSFFLYSKLTVDKSRWQQGNVFSCSVMHEALHNHYTQKSLSLSPG
For the molecule B6, in test [2], the Dilute PT EC50 was determined as 1 nM.

B7: hz4D8 (antibody, human IgG1, kappa)
light: DIQMTQSPSSLSASVGDRVTITCKASQDVHTAVAWYQQKPGKAPKLLIYWASTRHTGVPSRFSGSGSGTDYTLTISSLQPEDFATYYCQQHYTTPYTFGQGTKLEIKRTVAAPSVFIFPPSDEQLKSGTASVVCLLNNFYPREAKVQWKVDNALQSGNSQESVTEQDSKDSTYSLSSTLTLSKADYEKHKVYACEVTHQGLSSPVTKSFNRGEC
heavy: EVQLVESGGGLVQPGGSLRLSCAASGYTFTDYNLDWVRQAPGKGLEWVADINPINGATLYNQKFKGRFTISRDQAKNSLYLQMNSLRAEDTAVYYCARYYGDYDAMDYWGQGTLVTVSSASTKGPSVFPLAPSSKSTSGGTAALGCLVKDYFPEPVTVSWNSGALTSGVHTFPAVLQSSGLYSLSSVVTVPSSSLGTQTYICNVNHKPSNTKVDKKVEPKSCDKTHTCPPCPAPEAAGAPSVFLFPPKPKDTLMISRTPEVTCVVVDVSHEDPEVKFNWYVDGVEVHNAKTKPREEQYNSTYRVVSVLTVLHQDWLNGKEYKCKVSNKALPAPIEKTISKAKGQPREPQVYTLPPSREEMTKNQVSLTCLVKGFYPSDIAVEWESNGQPENNYKTTPPVLDSDGSFFLYSKLTVDKSRWQQGNVFSCSVMHEALHNHYTQKSLSLSPG
Regarding B7, in test [2], the Dilute PT EC50 worked out at 0.47 nM, the TGA Velocity EC50 came to 3.9 nM, the TGA Velocity Index at 20 nM stood at 15.7 and the dilute prothrombin time EC50 is 0.47 nM.
